Measurements: patent US20250051444A1 (SUZHOU ZELGEN BIOPHARMACEUTICALS, published 2025)

Biological target: T1, human LRRC15 (leucine-rich repeat containing protein 15) (human, UniProt Q8TF66 22-581)
T1 construct: whole, on cells; also called huLRRC15
T1 sequence (looked up): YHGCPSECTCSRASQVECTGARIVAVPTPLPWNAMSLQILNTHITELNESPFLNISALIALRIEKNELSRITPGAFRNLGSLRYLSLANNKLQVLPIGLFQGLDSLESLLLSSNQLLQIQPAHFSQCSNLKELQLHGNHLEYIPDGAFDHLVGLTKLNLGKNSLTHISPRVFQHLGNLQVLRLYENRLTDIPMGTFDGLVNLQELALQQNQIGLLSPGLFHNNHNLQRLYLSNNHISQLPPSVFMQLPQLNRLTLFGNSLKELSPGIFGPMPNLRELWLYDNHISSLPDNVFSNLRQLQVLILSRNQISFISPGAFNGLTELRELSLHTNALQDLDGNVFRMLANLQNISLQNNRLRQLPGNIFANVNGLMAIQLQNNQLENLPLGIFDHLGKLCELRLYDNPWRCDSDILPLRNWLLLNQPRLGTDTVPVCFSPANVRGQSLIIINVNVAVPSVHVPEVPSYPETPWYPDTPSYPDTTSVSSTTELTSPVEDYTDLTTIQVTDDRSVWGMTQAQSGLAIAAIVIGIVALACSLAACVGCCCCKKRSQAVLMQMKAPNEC
Assay: FACS on CHO cells expressing human LRRC15
Method: Furthermore, the binding ability of the LRRC15 antibodies of the present invention to CHO cells expressing LRRC15 was tested. Therein, CHO cells expressing LRRC15 were prepared by the following method: the full-length sequence gene fragments of human, mouse and monkey LRRC15 were obtained by whole gene synthesis, and then these fragments were inserted into the backbone of the stable expression vector to obtain the expression plasmid vectors. These three plasmids were transfected into CHO cells, and monoclonal cell lines were screened under the pressure of puromycin, which are the flow cytometry cell lines used in this example.
CHO cells expressing LRRC15 were washed with FACS buffer (0.5% BSA in PBS) and resuspended at 2E6 cells/ml with the gradient diluted LRRC15 antibodies. The resuspension was incubated on ice for 30 minutes, then washed twice with FACS buffer and incubated with the second antibody on ice for 30 minutes. After washing the resuspended cells with FACS buffer again, the cells were detected by flow cytometry. Based on the measured mean fluorescence intensity, the half maximal binding concentration (EC50) of each antibody was determined.

B1: L15-06 (antibody, V domains shown)
VH: EVQLLESGGGLVQPGGSLRLSCAASGFTFSSYYMSWVRQAPGKGLEWVADISVSGSYTNYADSVKGRFTISRDNSKNTLYLQMNSLRAEDTAVYYCARIGSYRSFFSTDDGDSLDYWGQGTLVTVSS
VL: not shown
notes: From phage library screening; tested as a 'monoclonal antibody molecule'; also called L15-L06
- binding result: binds

B2: L15-08 (antibody, V domains shown)
VH: QVQLVESGGGLVKPGGSLRLSCAASGFTFSDYYMSWIRQAPGKGLEWVSDISVSSSYTNYADSVKGRFTISRDNAKNSLYLQMNSLRAEDTAVYYCARLGGYRSFFSTDDGDSLDYWGQGTLVTVSS
VL: not shown
notes: From phage library screening
- binding result: binds

B3: L15-03 (antibody, V domains shown)
VH: QVQLVQSGAEVKKPGSSVKVSCKASGGTFSSYTISWVRQAPGQGLEWMGGIIPMFGTANYAQKFQGRVTITADESTSTAYMELSSLRSEDTAVYYCARGVALLATDFDYWGQGTLVTVSS
VL: QSALTQPASVSGSPGQSITISCTGTSSDVGGYNYVSWYQQHPGKAPKLMIYEVSNRPSGVSNRFSGSKSGNTASLTISGLQAEDEADYYCQSWTHDNSVVFGGGTKLTVL
notes: From phage library screening; also called anti-LRRC15 antibody L15-03
- binding result: binds

B4: 153-L06C (bispecific antibody)
chain 1: not shown
chain 2: EPKSCDKTHTCPPCPAPEFEGGPSVFLFPPKPKDTLMISRTPEVTCVVVDVSHEDPEVKFNWYVDGVEVHNAKTKPREEQYNSTYRVVSVLTVLHQDWLNGKEYKCKVSNKALPASIEKTISKAKGQPREPQVCTLPPSRDELTKNQVSLTCLVEGFYPSDIAVEWESNGQPENNYKTTPPVLDSDGSFFLYSDLTVDKSRWQQGNVFSCSVMHEALHNHYTQESLSLSPGK
notes: Targets LRRC15 and CD3; heterodimeric IgG1 Fc; also called bispecific antibody of structure b (scFv-scFv-Fc x Fc)
- binding result: binds

B5: 315-L06C08 (bispecific antibody)
chain: not shown
heavy: QVQLVESGGGLVKPGGSLRLSCAASGFTFSDYYMSWIRQAPGKGLEWVSDISVSSSYTNYADSVKGRFTISRDNAKNSLYLQMNSLRAEDTAVYYCARLGGYRSFFSTDDGDSLDYWGQGTLVTVSSASTKGPSVFPLAPSSKSTSGGTAALGCLVKDYFPEPVTVSWNSGALTSGVHTFPAVLQSSGLYSLSSVVTVPSSSLGTQTYICNVNHKPSNTKVDKRVEPKSCDKTHTCPPCPAPEFEGGPSVFLFPPKPKDTLMISRTPEVTCVVVDVSHEDPEVKFNWYVDGVEVHNAKTKPREEQYNSTYRVVSVLTVLHQDWLNGKEYKCKVSNKALPASIEKTISKAKGQPREPQVCTLPPSRDELTKNQVSLTCLVEGFYPSDIAVEWESNGQPENNYKTTPPVLDSDGSFFLYSDLTVDKSRWQQGNVFSCSVMHEALHNHYTQESLSLSPGK
light: not shown
notes: heterodimeric IgG1 Fc; also called bispecific antibody of structure c (scFv-scFv-Fc x Fab-Fc)
- binding result: binds

B6: L15-07 (antibody, V domains shown)
VH: QVQLVQSGAEVKKPGSSVKVSCKASGGTFSTYAISWVRQAPGQGLEWMGGITPMFGTPNYAQKFQGRVTITADESTSTAYMELSSLRSEDTAVYYCARGDWYDYHFDYWGQGTLVTVSS
VL: QSALTQPASVSGSPGQSITISCTGTSSDVGGYNYVSWYQQHPGKAPKLMIYEVSNRPSGVSNRFSGSKSGNTASLTISGLQAEDEADYYCQSYANRDNFVVFGGGTKLTVL
notes: From phage library screening
- binding result: binds
